According to patent US20220257704A1, “COMBINATION OF CHEMOTHERAPY WITH RECOMBINANT S. ROLFSII LECTIN” (Unichem Laboratories Ltd, priority 2018, published 2022):
“And” between values parts separate entries of the source, which are not always exact repeats. Equal entries are not always repeated.

Tests used:
Test in all cases: MTT cytotoxicity assay, 48 h, alone and in combination (IC50 and Combination Index)
Type in all cases: cell-based
[1] = test system: PANC-1 cell line
Procedure: The cytotoxic effect on each combination was determined by MTT assay.
(§1) Combination Index (CI) values were determined for each drug concentration combination. The CI values were calculated based on the IC50 values using the formula as given in below.

[2] = test system: PA-1 cell line
Procedure: In a further study, PA-1 cells were treated with Cisplatin(0.01 μM-5 μM) in combination with SEQ ID NO: 1(1 μg/mL-20 μg/mL) for 48 h. Similarly another set of cells were treated with Paclitaxel (0.01 nM-5 nM) in combination with SEQ ID NO: 1 (1 μg/mL-20 μg/mL).

[3] = test system: MDA-MB-231 cell line
Procedure: (§2) The cell were kept in contact with the recombinant lectin of SEQ ID NO: 1 and the chemotherapy agent for 48 h and the cytotoxic effect (percentage cytotoxicity) was measured. The cytotoxic effect was determined by well-known colorimetric MTT assay (Mossman, T. 1983 Rapid colorimetric assay for cellular growth and survival: application to proliferation and cytotoxicity assays Journal of Immunological Methods, volume 65, pages 55-63) for assessing cell metabolic activity.
(§3) Based on percentage cytotoxicity data, IC50 values were determined using the software GraphPad Prism version 4.01.
as §1
A study was performed to determine the effect of the concentration of the recombinant lectin represented by SEQ ID NO: 1 on the IC50 of Paclitaxel for cytotoxicity in MDA-MB-231 cells. Conversely the effect of the concentration of Paclitaxel on the IC50 of the recombinant lectin represented by SEQ ID NO: 1.
Similarly another study was performed for Carboplatin in combination with the recombinant lectin of SEQ ID NO: 1.
In a further study, MDA-MB-231 cells were treated with Paclitaxel (0.001 nM-10 nM) in combination with SEQ ID NO: 1(2.5 μg/mL-80 μg/mL) for 48 h. Similarly another set of cells were treated with Carboplatin (10 μM-1000 μM) in combination with SEQ ID NO: 1 (2.5 μg/mL-80 μg/mL).

[4] = test system: HT-29 cell line
[5] = test system: KB cell line
Procedure: A study was performed to determine the effect of the concentration of the recombinant lectin represented by SEQ ID NO: 1 on the IC50 of5-FU for cytotoxicity in KB cells.
Similarly another study was performed for Cisplatin in combination with the recombinant lectin of SEQ ID NO: 1.
Similarly another set of cells were treated with Cisplatin(0.1 μM to 1.5 μM)in combination with SEQ ID NO: 1(5.0 μg/mL-90 μg/mL).

[6] = test system: T24 cell line
Procedure: as §2, §3, §1
A study was performed to determine the effect of the concentration of the recombinant lectin represented by SEQ ID NO: 1 on the IC50 of Cisplatin for cytotoxicity in T24 cells. Conversely the effect of the concentration of Cisplatin on the IC50 of the recombinant lectin represented by SEQ ID NO: 1.
Similarly another study was performed for Gemcitabine in combination with the recombinant lectin of SEQ ID NO: 1.
This was performed using the same techniques as in Example 1-1.
In a further study, T24 cells were treated with Cisplatin (1 μM-500 μM) in combination with SEQ ID NO: 1(2.5 μg/mL-80 μg/mL) for 48 h. Similarly another set of cells were treated with Gemcitabine (1 μM-300 μM) in combination with SEQ ID NO: 1 (2.5 μg/mL-80 μg/mL). Combination Index values were determined for each drug combination and resultant antagonistic, additive or synergistic effect was determined, as described in Example 1-2.

[7] = in combination with 5-FU, paired with 5-FU conc. of the same table row
[8] = in combination with Paclitaxel, paired with Paclitaxel conc. of the same table row
[9] = in combination with Cisplatin, paired with Cisplatin conc. of the same table row

B1: SEQ ID NO: 1: recombinant lectin protein, variant of the S. rolfsii lectin amino acid sequence (reported as Rec-2 in WO 2010/095143) (protein)
chain: TYKITVRVYQTNPDAFFHPVEKTVWKYANGGTWTITDDQHVLTMGGSGTSGTLRFHADNGESFTATFGVHNYKRWCDIVTNLAADETGMVINQQYYSQKNREEARERQLSNYQVKNAKGRNFQIVYTEAEGNDLHANLIIG
IC50 of SEQ ID NO: 1 ([1]; 5-FU 0 μM): 24.630 µg/mL | IC50 of SEQ ID NO: 1 ([1]; 5-FU 0.1 μM): 686.900 µg/mL | IC50 of SEQ ID NO: 1 ([1]; 5-FU 1 μM): 22.490 µg/mL | IC50 of SEQ ID NO: 1 ([1]; 5-FU 10 μM): 6.842 µg/mL | IC50 of SEQ ID NO: 1 ([1]; 5-FU 50 μM): 1.690 µg/mL | IC50 of SEQ ID NO: 1 ([1]; 5-FU 100 μM): 1.070 µg/mL | IC50 of SEQ ID NO: 1 ([1]; 5-FU […] μM): 0.098 µg/mL | IC50 of SEQ ID NO: 1 ([1]; Gemcitabine 0 μM): 25.060 µg/mL | IC50 of SEQ ID NO: 1 ([1]; Gemcitabine 0.01 μM): 55.490 µg/mL | IC50 of SEQ ID NO: 1 ([1]; Gemcitabine 0.1 μM): 19.450 µg/mL | IC50 of SEQ ID NO: 1 ([1]; Gemcitabine 1 μM): 14.130 µg/mL | IC50 of SEQ ID NO: 1 ([1]; Gemcitabine 5 μM): 12.230 µg/mL | IC50 of SEQ ID NO: 1 ([1]; Gemcitabine 25 μM): 2.044 µg/mL | IC50 of SEQ ID NO: 1 ([1]; Gemcitabine 50 μM): 0.917 µg/mL | Conc. of SEQ ID NO: 1 showing synergistic effect [1, 7]: 5 µg/mL and 10 to 80 µg/mL | IC50 of SEQ ID NO: 1 ([2]; Cisplatin 0 μM): 12.070 µg/mL | IC50 of SEQ ID NO: 1 ([2]; Cisplatin 0.01 μM): 8.520 µg/mL | IC50 of SEQ ID NO: 1 ([2]; Cisplatin 0.1 μM): 6.033 µg/mL | IC50 of SEQ ID NO: 1 ([2]; Cisplatin 0.5 μM): 0.912 µg/mL | IC50 of SEQ ID NO: 1 ([2]; Cisplatin 1 μM): 0.321 µg/mL | IC50 of SEQ ID NO: 1 ([2]; Cisplatin 5 μM): 0.0036 µg/mL | IC50 of SEQ ID NO: 1 ([2]; Cisplatin […]): 4.455 µg/mL | IC50 of SEQ ID NO: 1 ([2]; Paclitaxel 0 nM): 8.822 µg/mL | IC50 of SEQ ID NO: 1 ([2]; Paclitaxel 0.01 nM): 5.794 µg/mL | IC50 of SEQ ID NO: 1 ([2]; Paclitaxel 0.1 nM): 6.545 µg/mL | IC50 of SEQ ID NO: 1 ([2]; Paclitaxel 0.5 nM): 3.917 µg/mL | IC50 of SEQ ID NO: 1 ([2]; Paclitaxel 1 nM): 3.031 µg/mL | IC50 of SEQ ID NO: 1 ([2]; Paclitaxel 5 nM): 0.709 µg/mL | IC50 of SEQ ID NO: 1 ([2]; Paclitaxel […]): 4.893 µg/mL | Conc. of SEQ ID NO: 1 showing synergistic effect [2, 8]: 1 to 20 µg/mL | IC50 of SEQ ID NO: 1 ([3]; Carboplatin 0 μM): 14.310 µg/mL | IC50 of SEQ ID NO: 1 ([3]; Carboplatin 10 μM): 7.188 µg/mL | IC50 of SEQ ID NO: 1 ([3]; Carboplatin 50 μM): 3.584 µg/mL | IC50 of SEQ ID NO: 1 ([3]; Carboplatin 100 μM): 4.290 µg/mL | IC50 of SEQ ID NO: 1 ([3]; Carboplatin 200 μM): 2.073 µg/mL | IC50 of SEQ ID NO: 1 ([3]; Carboplatin 500 μM): 0.523 µg/mL | IC50 of SEQ ID NO: 1 ([3]; Carboplatin 1000 μM): 0.044 µg/mL | IC50 of SEQ ID NO: 1 ([3]; Paclitaxel 0 nM): 19.800 µg/mL | IC50 of SEQ ID NO: 1 ([3]; Paclitaxel 0.001 nM): 25.370 µg/mL | IC50 of SEQ ID NO: 1 ([3]; Paclitaxel 0.01 nM): 21.220 µg/mL | IC50 of SEQ ID NO: 1 ([3]; Paclitaxel 0.1 nM): 13.700 µg/mL | IC50 of SEQ ID NO: 1 ([3]; Paclitaxel 1 nM): 8.720 µg/mL | IC50 of SEQ ID NO: 1 ([3]; Paclitaxel 5 nM): 5.775 µg/mL | IC50 of SEQ ID NO: 1 ([3]; Paclitaxel 10 nM): 2.248 µg/mL | Conc. of SEQ ID NO: 1 showing synergistic effect ([3]; in combination with Carboplatin, paired with Carboplatin conc. of the same table row): 5 to 80 µg/mL and 2.5 µg/mL | Conc. of SEQ ID NO: 1 showing synergistic effect [3, 8]: 20 to 80 µg/mL and 10 µg/mL | IC50 of SEQ ID NO: 1 ([4]; 5-FU 0 μM): 25.470 µg/mL | IC50 of SEQ ID NO: 1 ([4]; 5-FU 5 μM): 22.990 µg/mL | IC50 of SEQ ID NO: 1 ([4]; 5-FU 10 μM): 6.374 µg/mL | IC50 of SEQ ID NO: 1 ([4]; 5-FU 50 μM): 1.667 µg/mL | IC50 of SEQ ID NO: 1 ([4]; 5-FU 100 μM): 1.387 µg/mL | IC50 of SEQ ID NO: 1 ([4]; 5-FU 150 μM): 1.216 µg/mL | IC50 of SEQ ID NO: 1 ([4]; 5-FU 200 μM): 1.334 µg/mL | IC50 of SEQ ID NO: 1 ([4]; Irinotecan 0 μM): 18.320 µg/mL | IC50 of SEQ ID NO: 1 ([4]; Irinotecan 0.1 μM): 73.480 µg/mL | IC50 of SEQ ID NO: 1 ([4]; Irinotecan 1 μM): 36.280 µg/mL | IC50 of SEQ ID NO: 1 ([4]; Irinotecan 5 μM): 23.520 µg/mL | IC50 of SEQ ID NO: 1 ([4]; Irinotecan 10 μM): 9.995 µg/mL | IC50 of SEQ ID NO: 1 ([4]; Irinotecan 25 μM): 8.258 µg/mL | IC50 of SEQ ID NO: 1 ([4]; Irinotecan 50 μM): 1.395 µg/mL | Conc. of SEQ ID NO: 1 showing synergistic effect ([4]; in combination with Irinotecan, paired with Irinotecan conc. of the same table row): 40 to 80 µg/mL and 20 µg/mL | IC50 of SEQ ID NO: 1 ([5]; 5-FU 0 μM): 17.3800 µg/mL | IC50 of SEQ ID NO: 1 ([5]; 5-FU 0.01 μM): 0.5800 µg/mL | IC50 of SEQ ID NO: 1 ([5]; 5-FU 0.1 μM): 0.9080 µg/mL | IC50 of SEQ ID NO: 1 ([5]; 5-FU 0.5 μM): 0.1141 µg/mL | IC50 of SEQ ID NO: 1 ([5]; 5-FU 1 μM): 0.0555 µg/mL | IC50 of SEQ ID NO: 1 ([5]; 5-FU 5 μM): 0.0871 µg/mL | IC50 of SEQ ID NO: 1 ([5]; 5-FU […]): 0.5010 µg/mL | IC50 of SEQ ID NO: 1 ([5]; Cisplatin 0 μM): 38.110 µg/mL | IC50 of SEQ ID NO: 1 ([5]; Cisplatin 0.1 μM): 21.190 µg/mL | IC50 of SEQ ID NO: 1 ([5]; Cisplatin 0.5 μM): 2.694 µg/mL | IC50 of SEQ ID NO: 1 ([5]; Cisplatin 0.75 μM): 0.597 µg/mL | IC50 of SEQ ID NO: 1 ([5]; Cisplatin 1.0 μM): 0.316 µg/mL | IC50 of SEQ ID NO: 1 ([5]; Cisplatin 1.5 μM): 0.303 µg/mL | IC50 of SEQ ID NO: 1 ([5]; Cisplatin […]): 11.240 µg/mL | Conc. of SEQ ID NO: 1 showing synergistic effect [5, 7]: 5 to 90 µg/mL | Conc. of SEQ ID NO: 1 showing synergistic effect [5, 9]: 10 to 90 µg/mL and 5 µg/mL | IC50 of SEQ ID NO: 1 ([6]; Cisplatin 0 μM): 11.470 µg/mL | IC50 of SEQ ID NO: 1 ([6]; Cisplatin 1 μM): 11.460 µg/mL | IC50 of SEQ ID NO: 1 ([6]; Cisplatin 10 μM): 2.375 µg/mL | IC50 of SEQ ID NO: 1 ([6]; Cisplatin 25 μM): 1.062 µg/mL | IC50 of SEQ ID NO: 1 ([6]; Cisplatin 50 μM): 1.081 µg/mL | IC50 of SEQ ID NO: 1 ([6]; Cisplatin 100 μM): 0.944 µg/mL | IC50 of SEQ ID NO: 1 ([6]; Cisplatin 500 μM): 0.716 µg/mL | IC50 of SEQ ID NO: 1 ([6]; Gemcitabine 0 μM): 10.350 µg/mL | IC50 of SEQ ID NO: 1 ([6]; Gemcitabine 1 μM): 2.242 µg/mL | IC50 of SEQ ID NO: 1 ([6]; Gemcitabine 10 μM): 0.892 µg/mL | IC50 of SEQ ID NO: 1 ([6]; Gemcitabine 50 μM): 0.626 µg/mL | IC50 of SEQ ID NO: 1 ([6]; Gemcitabine 100 μM): 0.155 µg/mL | IC50 of SEQ ID NO: 1 ([6]; Gemcitabine 200 μM): 0.149 µg/mL | IC50 of SEQ ID NO: 1 ([6]; Gemcitabine 300 μM): 0.029 µg/mL | Conc. of SEQ ID NO: 1 showing synergistic effect [6, 9]: 5 to 80 µg/mL | Conc. of SEQ ID NO: 1 showing synergistic effect ([6]; in combination with Gemcitabine, paired with Gemcitabine conc. of the same table row): 2.5 to 80 µg/mL
